Laboratory results reported in patent US20180305465A1.
pKd: −log10 of the molar value.

Legend:
[1] = molecular target: Recombinant human CD3ε-Fc (human); assay: Absolute KD; SPR, Biacore T200, CD3ε-Fc amine coupled to CM5 at lowest usable density; koff/kon, 1:1 global fit
[2] = molecular target: Recombinant minimally biotinylated human CD38-His (Fisher Scientific) (human) (UniProt P28907); assay: Absolute KD; BLI, Octet HTX, CD38-His at five loading levels 0.3-2 nm, plateau of measured KD as loading decreases
Sequence of Recombinant minimally biotinylated human CD38-His (Fisher Scientific) (human) (P28907 43-300 limits assumed): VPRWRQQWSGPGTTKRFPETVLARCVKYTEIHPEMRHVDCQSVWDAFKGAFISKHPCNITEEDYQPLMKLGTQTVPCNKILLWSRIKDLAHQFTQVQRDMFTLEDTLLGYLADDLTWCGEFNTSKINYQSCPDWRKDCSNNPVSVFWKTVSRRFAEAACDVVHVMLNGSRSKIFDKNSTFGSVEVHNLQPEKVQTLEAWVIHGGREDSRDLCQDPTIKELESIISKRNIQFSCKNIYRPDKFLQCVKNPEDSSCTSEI

[3] = molecular target: Recombinant minimally biotinylated cynomolgus CD38-His (Sino Biological Inc.) (cynomolgus) (UniProt Q5VAN0); assay: as above
Sequence of Recombinant minimally biotinylated cynomolgus CD38-His (Sino Biological Inc.) (cynomolgus) (Q5VAN0 44-301 limits assumed): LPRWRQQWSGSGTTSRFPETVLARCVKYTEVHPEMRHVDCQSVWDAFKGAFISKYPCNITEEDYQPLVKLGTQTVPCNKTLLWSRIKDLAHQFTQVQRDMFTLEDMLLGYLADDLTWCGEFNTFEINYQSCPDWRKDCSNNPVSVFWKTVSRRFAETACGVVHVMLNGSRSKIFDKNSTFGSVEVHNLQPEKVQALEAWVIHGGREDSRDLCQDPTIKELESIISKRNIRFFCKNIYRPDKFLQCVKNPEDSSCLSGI

[4] = molecular target: Recombinant human CD3ε-Fc (human); assay: SPR, SensiQ Pioneer FE; CD3ε-Fc amine coupled to CM5 chip; equilibrium analysis
[5] = molecular target: Recombinant cynomolgus CD3ε-Fc (cynomolgus) (UniProt Q95LI5); assay: as above
Sequence of Recombinant cynomolgus CD3ε-Fc (cynomolgus) (Q95LI5 22-117 limits assumed): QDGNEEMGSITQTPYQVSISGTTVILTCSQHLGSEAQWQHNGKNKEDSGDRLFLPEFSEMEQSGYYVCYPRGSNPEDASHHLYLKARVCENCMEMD

[6] = molecular target: cynomolgus CD38 on cynomolgus B cells (PBMCs) (cynomolgus) (UniProt Q5VAN0); assay: cell-based or functional assay
Sequence of cynomolgus CD38 on cynomolgus B cells (PBMCs) (cynomolgus) (Q5VAN0 whole entry): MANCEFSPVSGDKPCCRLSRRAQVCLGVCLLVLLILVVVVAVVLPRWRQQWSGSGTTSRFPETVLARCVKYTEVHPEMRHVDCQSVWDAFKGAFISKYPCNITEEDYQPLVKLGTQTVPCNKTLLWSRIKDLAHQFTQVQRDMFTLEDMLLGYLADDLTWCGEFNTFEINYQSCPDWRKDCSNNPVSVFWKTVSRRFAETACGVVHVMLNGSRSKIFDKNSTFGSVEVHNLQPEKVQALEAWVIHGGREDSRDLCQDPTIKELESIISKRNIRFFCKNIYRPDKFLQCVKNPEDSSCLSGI

[7] = molecular target: Recombinant minimally biotinylated human CD38-His (Fisher Scientific) (human) (UniProt P28907); assay: BLI, Octet HTX; biotinylated CD38-His on streptavidin tips (2 nm), antibody in solution; 1:1 model, kd/ka
[8] = molecular target: Recombinant minimally biotinylated cynomolgus CD38-His (Sino Biological Inc.) (cynomolgus) (UniProt Q5VAN0); assay: as above

Sequence of Recombinant human CD3ε-Fc (human) (chain, as listed by the source): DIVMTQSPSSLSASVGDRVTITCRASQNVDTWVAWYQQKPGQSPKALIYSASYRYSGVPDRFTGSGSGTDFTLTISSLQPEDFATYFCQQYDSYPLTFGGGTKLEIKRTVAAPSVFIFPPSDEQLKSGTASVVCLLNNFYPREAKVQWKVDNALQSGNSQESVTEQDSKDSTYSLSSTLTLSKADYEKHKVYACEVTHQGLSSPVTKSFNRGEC

pKd [1]: 7.45
pKd [2]: 8.05
pKd [3]: 8.12
pKd [4]: 7.53
pKd [5]: 7.47
Cyno B Cell TDCC EC50 [6]: 0.082 nM
pKd [7]: 8.60
pKd [8]: 8.55
Substance: XmAb18968 (412220) (bispecific antibody)
